Data as given in PMC6366628.

How the values were obtained:
RAD52 = target: T1, RAD52 (Homo sapiens, UniProt P43351 1-418); assay: EMSA
T1 sequence: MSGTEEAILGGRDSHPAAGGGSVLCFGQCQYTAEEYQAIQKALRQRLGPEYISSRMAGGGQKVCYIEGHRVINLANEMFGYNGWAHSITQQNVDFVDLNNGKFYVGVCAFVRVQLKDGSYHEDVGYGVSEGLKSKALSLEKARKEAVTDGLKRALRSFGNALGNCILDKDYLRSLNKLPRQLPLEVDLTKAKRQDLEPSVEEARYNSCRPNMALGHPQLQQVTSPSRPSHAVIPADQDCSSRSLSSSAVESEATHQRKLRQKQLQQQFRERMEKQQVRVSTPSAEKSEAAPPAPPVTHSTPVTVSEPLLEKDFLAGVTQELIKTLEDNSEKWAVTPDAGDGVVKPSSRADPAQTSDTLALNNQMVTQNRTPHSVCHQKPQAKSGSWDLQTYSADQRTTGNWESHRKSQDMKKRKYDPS

RPA complex = RPA complex (Homo sapiens, UniProt P27694;P15927;P35244 1-616;1-270;1-121); assay: EMSA
RPA complex, sequence (P27694 whole entry, chain 1 of 3): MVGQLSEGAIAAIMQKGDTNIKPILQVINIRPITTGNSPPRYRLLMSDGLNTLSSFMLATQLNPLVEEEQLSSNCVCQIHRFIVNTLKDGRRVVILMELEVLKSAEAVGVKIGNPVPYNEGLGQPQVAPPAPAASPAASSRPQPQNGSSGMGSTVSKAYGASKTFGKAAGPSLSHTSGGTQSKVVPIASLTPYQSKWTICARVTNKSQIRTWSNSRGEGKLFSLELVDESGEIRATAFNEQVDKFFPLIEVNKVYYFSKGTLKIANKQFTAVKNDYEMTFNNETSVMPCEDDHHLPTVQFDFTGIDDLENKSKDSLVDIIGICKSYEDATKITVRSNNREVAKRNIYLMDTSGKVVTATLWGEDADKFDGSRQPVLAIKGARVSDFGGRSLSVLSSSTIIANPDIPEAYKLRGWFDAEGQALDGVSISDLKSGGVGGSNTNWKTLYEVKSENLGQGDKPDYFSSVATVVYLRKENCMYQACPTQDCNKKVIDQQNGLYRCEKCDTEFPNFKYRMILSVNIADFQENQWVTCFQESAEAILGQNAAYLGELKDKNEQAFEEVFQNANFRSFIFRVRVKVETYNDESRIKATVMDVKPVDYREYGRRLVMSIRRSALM
RPA complex, sequence (P15927 whole entry, chain 2 of 3): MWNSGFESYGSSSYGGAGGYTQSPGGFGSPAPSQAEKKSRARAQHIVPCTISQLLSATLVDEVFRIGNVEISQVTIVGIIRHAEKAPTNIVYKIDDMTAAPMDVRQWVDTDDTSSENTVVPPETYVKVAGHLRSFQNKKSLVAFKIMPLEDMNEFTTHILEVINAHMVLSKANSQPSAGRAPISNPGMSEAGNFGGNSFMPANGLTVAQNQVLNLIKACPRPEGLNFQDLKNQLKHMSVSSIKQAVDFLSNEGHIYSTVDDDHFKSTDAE
RPA complex, sequence (P35244 whole entry, chain 3 of 3): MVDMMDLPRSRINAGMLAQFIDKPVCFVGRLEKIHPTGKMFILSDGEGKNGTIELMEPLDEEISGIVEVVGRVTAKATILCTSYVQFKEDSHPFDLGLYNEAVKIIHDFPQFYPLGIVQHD

B1: ssTelo (Telo G-strand) (ssDNA)
DNA: TTAGGGTTAGGGTTAGGGTTAGGGTTAGGGTTAGGGTTAGGGTTAGGGTTAGGGTTAGGG
binding result (RAD52): binds
binding result (RPA complex): binds
